According to article PMC11050321, “L-Asparaginase Conjugates from the Hyperthermophilic Archaea Thermococcus sibiricus with Improved Biocatalytic Properties” (International Journal of Molecular Sciences, 2024):

Substrate: NC(=O)C[C@H](N)C(=O)O
Assay: purified protein
Format: biochemical, Thermococcus sibiricus
Details: native unconjugated enzyme, 25 mM borate buffer, pH 8.5 (Table 4; Figure 5 legend says pH 7.5, Methods pH 9.3), 85 °C

B1: TsA (L-asparaginase from Thermococcus sibiricus) (Thermococcus sibiricus MM 739) (protein)
chain: MKKLLIIGTGGTIASAKTEQGYKSVLKIDEILKLAKIKLENGYKIDSTNIMNIDSTLIHPEDWEIIAKEVFKALDDYDGIIITHGTDTLAYTASMLSFMIKNPNKPIVLTGSMLPITENGSDAPRNIRTAIKFAMEDVAGVFVAFMDKIMLGCRTSKVRTLGLNAFMSINYPDVAYVKGEKILYNIPKEKFQPNGSPELDTKYEPRVVVLRVTPGLGGEIIDAVLDAGYKGIVLEGYGAGGLPYRKSNLLSKIKEITPKIPVIMTTQALYDGVDMRKYEVGRKALETGIIPAKDMTKEATITKLMWALGHTKDVEKIREIMHTNYVNEIKS
notes: synthetic gene in pET-28a(+), E. coli BL21(DE3), SP-Sepharose purified (no tag mentioned); gene span 996 nt
In the case of B1, the Km is reported as 6.1 ± 1.3 mM and the Vmax is reported as 470 µmol/min/mg.
